Assay [1] deals with T1, natural Fel d1 (Indoor Biotech, #NA-FD1-2) (cat, UniProt P30438 23-92; P30440 18-109).
T1 construct: Bought natural heterodimeric glycoprotein, chains linked by disulfide bonds; also called nFel d1; nFel d 1
The experiment in a line: Octet BLI, mAb captured on anti-hFc tip, 500 nM nFel d1. In general terms: BLI is a label-free optical method that tracks binding on a fibre tip over time.

Assay [2] deals with T1, natural Fel d1 (Indoor Biotech, …). Put plainly: Octet BLI sandwich; nFel d1 pre-complexed with captured mAb-1 H4H2636P (competitor); self-competition value subtracted.
Assay [3] shares this target. The experiment in a line: Octet BLI sandwich; nFel d1 pre-complexed with captured mAb-1 H4H2597P (competitor); self-competition value subtracted.
The target is the same in assay [4]. The experiment in a line: Octet BLI sandwich; nFel d1 pre-complexed with captured mAb-1 H4H2864P (competitor); self-competition value subtracted.
Assay [5] shares this target. Put plainly: Octet BLI sandwich; captured mAb-1 H4H1300N, which did not pre-complex with nFel d1; self-competition value subtracted.
For assay [6] the target is unchanged. The experiment in a line: Octet BLI sandwich; nFel d1 pre-complexed with captured mAb-1 H4H1232N (competitor); self-competition value subtracted.
The target is the same in assay [7]. The experiment in a line: Octet BLI sandwich; nFel d1 pre-complexed with captured mAb-1 H4H1238N (competitor); self-competition value subtracted.
Assay [8] has the same target. Put plainly: SPR (Biacore 2000), mAb captured via anti-human Fc, nFel d 1 injected, 25 C. In general terms: SPR reads the build-up and loss of mass on a sensor chip optically.
Assay [9] shares this target. Put plainly: SPR (Biacore), mAb captured, natural Fel d1 injected, 25 C.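 Note: rate constants obtained by fitting association and dissociation phases to a one-to-one binding model, with Kd and half-life derived from those rate constants.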
For assay [10] the target is unchanged. The experiment in a line: Octet BLI sandwich; nFel d1 pre-complexed with captured mAb-1 H4H1616N (competitor); self-competition value subtracted.
Assay [11] has the same target. Put plainly: Octet BLI sandwich; nFel d1 pre-complexed with captured mAb-1 H4H2645P (competitor); self-competition value subtracted.

Here are results for four molecules from US20220025029A1 (Regeneron, published 2022).

T1 sequence (P30438 other isoform, or with tags, fused parts or gaps, chain 1 of 2): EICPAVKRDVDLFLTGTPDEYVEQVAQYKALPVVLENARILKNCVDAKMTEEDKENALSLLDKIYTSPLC
T1 sequence (P30440 18-109, chain 2 of 2): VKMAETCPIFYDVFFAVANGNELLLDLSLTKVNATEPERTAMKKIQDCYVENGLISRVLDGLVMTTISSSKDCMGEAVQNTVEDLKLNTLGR

B1: H4H1232N (antibody, human IgG4, V domains shown)
VH: EVQLVESGGGLVKPGGSLRLSCAASGFTFRNYNINWVRQAPGKGLEWVSLISGSSSYIYYADSVKGRFTVSRDNAKNSLYLQMNSLRAEDTAVYYCARRTLSYYVMDVWGQGTTVTVSS
VL: DIQVTQSPSPLSASVGDRVTITCRASQGISNYLAWYQQKPGRVPQLLIYAASTLQSGVPSRFSGSGSGTDFTLTISSLQPEDVATYYCQKYNSAPYTFGQGTKLEIK
notes: human IgG4 Fc (H4H prefix)
As usually defined, the Kd is a measure of binding affinity in units of concentration. Read a high Kd as a looser complex. Usually koff stands for a measure of how fast the partners let go of each other. A lower koff goes with slow dissociation. Usually kon stands for a measure of how fast the partners come together. Read a low kon as slow association. Turning to B1, the “Amount of 500 nM nFel d1 Bound” value in [1] is 0.08 nm. Further, the “Response of mAb-2 Binding to nFel d1 pre-complexed with mAb-1” value (“Response of mAb-2 Binding” below) in assay [2] is 0.29 nm; in [3], -0.03 nm; in [4], 0.3 nm; in assay [5] it was 0.02 nm; in [6], 0 nm; in assay [7], 0.76 nm. For the same molecule, the “Response of mAb-2 Binding” value in [10] was found to be 0.18 nm. For the same molecule, in assay [8], the “600 nM nFel d 1 Bound (RU)” value stood at 42 RU. Also, the dissociation constant Kd in assay [8] was 0.155 nM; in assay [9], 0.207 nM. Also, the koff amounted to 0.000472 s⁻¹ in assay [8] and 0.000331 s⁻¹ in assay [9]. The on-rate constant (kon) in assay [8] was determined as 3.05e+06 M⁻¹ s⁻¹; in assay [9], 1.6e+06 M⁻¹ s⁻¹. Besides, the t1/2 is 24 min in assay [8] and 35 min in assay [9].

B2: H4H1616N (antibody, human IgG4, V domains shown)
VH: EVELLESGGGLVQPGGSLRLSCAASGFTFSSYAMSWVRQAPGKGLEWVSSISGRVGSTHFADSVKGRFTFSRDNSKNTLYLQLSSLRAEDTAVYYCARSRGAAYFDYWGQGTLVTVSS
VL: DIQMTQSPSSLSASVGDRVTITCQANQDISNFLNWYQQRPGKAPNLLIYAASNLETGVPSRFSGSGSGTDFTFTISSLQPEDIATYYCQHYDNFPFTFGPGTKVDIK
notes: human IgG4 Fc (H4H prefix)
On to B2, for which the “Amount of 500 nM nFel d1 Bound” value in [1] is 0.09 nm. Further, the “Response of mAb-2 Binding” value is 0.01 nm in [2]; 0.4 nm in assay [3]; 0.01 nm in assay [4]; 0.01 nm in [11]; 0.06 nm in assay [5]; 0.54 nm in assay [6]. Also, the results for the “Response of mAb-2 Binding” value in [7] and in [10] were 0.43 nm and 0 nm, respectively. The molecule also came in with a Kd in assay [9] of 5.14 nM. The molecule further displayed a koff in assay [9] of 0.00124 s⁻¹. This molecule displayed a kon in [9] of 241000 M⁻¹ s⁻¹. The molecule also gave a t1/2 in assay [9] of 9 min.

B3: H4H2645P (antibody, human IgG4, V domains shown)
VH: EVQLVESGGGLVQPGGSLRLSCAASGFTFSTYAMHWVRQAPGKGLEWVSSISGRGRNSDHADSVKGRFTISRDNSKNTLYLQMNSLRAEDTAVYYCARTEYFHHWGQGTLVTVSS
VL: DIQMTQSPSSLSASVGDRITITCRASQDINNYLAWFQQKPGKAPKSLIYGASSLQSGVPSKFSGSGSGTDFTLTISSLQPEDFATYYCQQYSSYPFTFGPGTKVDIK
notes: human IgG4 Fc (H4H prefix)
For the molecule B3, the “Amount of 500 nM nFel d1 Bound” value in assay [1] turned out to be 0.1 nm. Moreover, the “Response of mAb-2 Binding” value in assay [2] was 0 nm; in assay [3], 0.55 nm; in assay [4] it was -0.01 nm; in [11] it was 0 nm; in assay [5], 0.05 nm; in assay [6] it was 0.75 nm. Besides, the “Response of mAb-2 Binding” value is 0.62 nm in [7] and -0.01 nm in assay [10]. Also, binding in assay [9] was put at a Kd of 0.459 nM. In [9], this molecule had a koff of 0.000261 s⁻¹. Besides, the on-rate constant (kon) in [9] came out at 569000 M⁻¹ s⁻¹. For the same molecule, the t1/2 in [9] is 44 min.

B4: H4H2864P (antibody, human IgG4, V domains shown)
VH: EVQLVESGGGLAQPGGSLRLSCAASGFTFNNYAMTWVRQAPGKGLDWVSAISDSGRSTFSADSVKGRFTISRDNSKNTLYLQMDSLRAEDTALYYCAKHRNWNYPVFDYWGQGTLVTVSS
VL: DIQLTQSPSFLSASVGDRVTITCWASQGISSYLAWYQQKPGKAPKLLIYSASTLQSGVPSRFSGSGSGTEFTLTISSLQPEDFATYYCQQLNSYPFTFGPGTKVDIK
notes: human IgG4 Fc (H4H prefix)
As for B4, the “Amount of 500 nM nFel d1 Bound” value in assay [1] worked out at 0.08 nm. In addition, the “Response of mAb-2 Binding” value in assay [2] is 0 nm; in assay [3], 0.54 nm; in assay [4], 0 nm; in assay [11], -0.01 nm; in assay [5] it was 0.06 nm; in assay [6], 0.71 nm. The entries for the “Response of mAb-2 Binding” value in [7] and in assay [10] were 0.62 nm and -0.01 nm, respectively. Moreover, the affinity in assay [9], expressed as Kd, was 0.801 nM. The same molecule displayed a dissociation rate constant (koff) in assay [9] of 0.00135 s⁻¹. This molecule displayed a kon in assay [9] of 1.68e+06 M⁻¹ s⁻¹. The t1/2 in [9] was 9 min.
